The source of these data is the RNAGym collection of RNA variant scans (doi:10.1093/molbev/msab373).

The labels stand for the following.
B1: Azoarcus group I ribozyme (parent)
chain: GUGCCUUGCGCCGGGAAACCACGCAAGGGAUGGUGUCAAAUUCGGCGAAACCUAAGCGCCCGCCCGGGCGUAUGGCAACGCCGAGCCAAGCUUCGGCGCCUGCGCCGAUGAAGGUGUAGAGACUAGACGGCACCCACCUAAGGCAAACGCUAUGGUGAAGGCAUAGUCCAGGGAGUGGCGAAAGUCACACAAACCGG

The data set covers variants of B1. Briefly: reverse-splicing fitness (ratio to wild type); higher = more active; in vitro selection; Mg2+ level not given. The essentials:
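An in vitro group I ribozyme library with randomized positions was T7-transcribed and gel-purified. In triplicate, 10 pmol RNA in EPPS pH 7.5 was reacted with 50 pmoles of a 30-nt RNA substrate for 1 h at 37 °C across several added MgCl2 levels (1–48 mM), then stopped with EDTA. Products were reverse transcribed from a substrate-complementary primer, PCR-amplified and sequenced (HiSeq 4000). Fitness is a variant's read proportion after selection over that before, normalised to wild type.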
Turning to GUGCCUUGCGCCGGGAAACCACGCAAGGGAUGGUGUCAAAUUCGGCGAAACCUAAGCGCCCGCCCGGGCGUAUGGCAACGCAGAGCCAAGCUUCGGCGCCUGCGCCGAUGAAGGUGUAGAGACUAGACGGCACCCACCUAAGGCGAACGAUAUGGUGAAGGCAUAGUCGAGGGAGUGGCGAAAGUCACACAAACCGG [C82A A145G C150A C169G], the reverse-splicing fitness was 0.00939.
Consider GUGCCUUGCGCCGGGAAACCACGCAAGGGAUGGUGUCAAAUUCGGCGAAACCUAAGCGCCCGCCCGGGCGUAUGGCAACGCAGAGCCAAGCUUCGGCGCCUGCGCCGAUGAAGGUGUAGAGACUAGACGGCACCCACCUAAGGCGAACGAUAUGGUGAAGGCAUAGUCAAGGGAGUGGCGAAAGUCACACAAACCGG [C82A A145G C150A C169A], for which the reverse-splicing fitness was found to be 0.0108.
The figure for GUGCCUUGCGCCGGGAAACCACGCAAGGGAUGGUGUCAAAUUCGGCGAAACCUAAGCGCCCGCCCGGGCGUAUGGCAACGCAGAGCCAAGCUUCGGCGCCUGCGCCGAUGAAGGUGUAGAGACUAGACGGCACCCACCUAAGGCGAACGAUAUGGUGAAGGCAUAGUCUAGGGAGUGGCGAAAGUCACACAAACCGG [C82A A145G C150A C169U] is 0.0112; for GUGCCUUGCGCCGGGAAACCACGCAAGGGAUGGUGUCAAAUUCGGCGAAACCUAAGCGCCCGCCCGGGCGUAUGGCAACGCAGAGCCAAGCUUCGGCGCCUGCGCCGAUGAAGGUGUAGAGACUAGACGGCACCCACCUAAGGCCAACGCUAUGGUGAAGGCAUAGUCUAGGGAGUGGCGAAAGUCACACAAACCGG [C82A A145C C169U] it is 0.0141.
For GUGCCUUGCGCCGGGAAACCACGCAAGGGAUGGUGUCAAAUUCGGCGAAACCUAAGCGCCCGCCCGGGCGUAUGGCAACGCAGAGCCAAGCUUCGGCGCCUGCGCCGAUGAAGGUGUAGAGACUAGACGGCACCCACCUAAGGCGAACGAUAUGGUGAAGGCAUAGUCAAGGGAGCGGCGAAAGUCACACAAACCGG [C82A A145G C150A C169A U176C], the reverse-splicing fitness was 0.0221.
For GUGCCUUGCGCCGGGAAACCACGCAAGGGAUGGUGUCAAAUUCGGCGAAACCUAAGCGCCCGCCCGGGCGUAUGGCAACGCAGAGCCAAGCUUCGGCGCCUGCGCCGAUGAAGGUGUAGAGACUAGACGGCACCCACCUAAGGCGAACGAUAUGGUGAAGGCAUAGUCAAGGGAGAGGCGAAAGUCACACAAACCGG [C82A A145G C150A C169A U176A] the value was 0.0195; for GUGCCUUGCGCCGGGAAACCACGCAAGGGAUGGUGUCAAAUUCGGCGAAACCUAAGCGCCCGCCCGGGCGUAUGGCAACGCAGAGCCAAGCUUCGGCGCCUGCGCCGAUGAAGGUGUAGAGACUAGACGGCACCCACCUAAGGCGAACGAUAUGGUGAAGGCAUAGUCAAGGGAGGGGCGAAAGUCACACAAACCGG [C82A A145G C150A C169A U176G], 0.00695.
For GUGCCUUGCGCCGGGAAACCACGCAAGGGAUGGUGUCAAAUUCGGCGAAACCUAAGCGCCCGCCCGGGCGUAUGGCAACGCAGAGCCAAGCUUCGGCGCCUGCGCCGAUGAAGGUGUAGAGACUAGACGGCACCCACCUAAGGCCAACGCUAUGGUGAAGGCAUAGUCCAGGGAGGGGCGAAAGUCACACAAACCGG [C82A A145C U176G] the value was 0.129; for GUGCCUUGCGCCGGGAAACCACGCAAGGGAUGGUGUCAAAUUCGGCGAAACCUAAGCGCCCGCCCGGGCGUAUGGCAACGCAGAGCCAAGCUUCGGCGCCUGCGCCGAUGAAGGUGUAGAGACUAGACGGCACCCACCUAAGGCCAACGCUAUGGUGAAGGCAUAGUCCAGGGAGAGGCGAAAGUCACACAAACCGG [C82A A145C U176A], 0.346.
With GUGCCUUGCGCCGGGAAACCACGCAAGGGAUGGUGUCAAAUUCGGCGAAACCUAAGCGCCCGCCCGGGCGUAUGGCAACGCAGAGCCAAGCUUCGGCGCCUGCGCCGAUGAAGGUGUAGAGACUAGACGGCACCCACCUAAGGCCAACGCUAUGGUGAAGGCAUAGUCCAGGGAGCGGCGAAAGUCACACAAACCGG [C82A A145C U176C], the reverse-splicing fitness came out at 0.44.
For the variant GUGCCUUGCGCCGGGAAACCACGCAAGGGAUGGUGUCAAAUUCGGCGAAACCUAAGCGCCCGCCCGGGCGUAUGGCAACGCAGAGCCAAGCUUCGGCGCCUGCGCCGAUGAAGGUGUAGAGACUAGACGGCACCCACCUAAGGCGAACGAUAUGGUGAAGGCAUAGUCCAGGGAGCGGCGAAAGUCACACAAACCGG [C82A A145G C150A U176C], the reverse-splicing fitness came out at 0.0855.
For GUGCCUUGCGCCGGGAAACCACGCAAGGGAUGGUGUCAAAUUCGGCGAAACCUAAGCGCCCGCCCGGGCGUAUGGCAACGCAGAGCCAAGCUUCGGCGCCUGCGCCGAUGAAGGUGUAGAGACUAGACGGCACCCACCUAAGGCGAACGAUAUGGUGAAGGCAUAGUCCAGGGAGGGGCGAAAGUCACACAAACCGG [C82A A145G C150A U176G], the reverse-splicing fitness came to 0.0222.
Consider GUGCCUUGCGCCGGGAAACCACGCAAGGGAUGGUGUCAAAUUCGGCGAAACCUAAGCGCCCGCCCGGGCGUAUGGCAACGCAGAGCCAAGCUUCGGCGCCUGCGCCGAUGAAGGUGUAGAGACUAGACGGCACCCACCUAAGGCGAACGAUAUGGUGAAGGCAUAGUCCAGGGAGAGGCGAAAGUCACACAAACCGG [C82A A145G C150A U176A], for which the reverse-splicing fitness amounted to 0.0679.
For GUGCCUUGCGCCGGGAAACCACGCAAGGGAUGGUGUCAAAUUCGGCGAAACCUAAGCGCCCGCCCGGGCGUAUGGCAACGCAGAGCCAAGCUUCGGCGCCUGCGCCGAUGAAGGUGUAGAGACUAGACGGCACCCACCUAAGGCGAACGAUAUGGUGAAGGCAUAGUCGAGGGAGCGGCGAAAGUCACACAAACCGG [C82A A145G C150A C169G U176C] the value was 0.0281.
Turning to GUGCCUUGCGCCGGGAAACCACGCAAGGGAUGGUGUCAAAUUCGGCGAAACCUAAGCGCCCGCCCGGGCGUAUGGCAACGCAGAGCCAAGCUUCGGCGCCUGCGCCGAUGAAGGUGUAGAGACUAGACGGCACCCACCUAAGGCGAACGAUAUGGUGAAGGCAUAGUCGAGGGAGGGGCGAAAGUCACACAAACCGG [C82A A145G C150A C169G U176G], the reverse-splicing fitness was 0.0061.
